Where a chain is given by its changes, count along the chain named.
B1: G001_gp1_V10_VRC01c_161 (antibody, V domains shown)
VH: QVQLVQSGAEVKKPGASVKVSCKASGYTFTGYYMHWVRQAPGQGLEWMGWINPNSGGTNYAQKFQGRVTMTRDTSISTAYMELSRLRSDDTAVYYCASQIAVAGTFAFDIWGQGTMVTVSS
VL: DIQMTQSPSTLSASVGDRVTITCRASQSISSWLAWYQQKPGKAPKLLIYKASSLESGVPSRFSGSGSGTEFTLTISSLQPDDFATYYCQQYYTFGQGTKLEIK
B2: G001_gp1_V10_VRC01c_173 (antibody, V domains shown)
VH: QVQLVQSGADVKKPGASVKVSCKASGYTLTGYYMHWVRQAPGQGLEWMGWINANSGGTNYAQKFQGRVTMTRDTSISTVYMELSRLRSDDTAVYYCAHRAGYCSGGGCSWYFDLWGRGTLVTVSS
VL: B1 VL with I29S, S31G, Y92E, T93A, L100V
B3: G001_gp1_V10_VRC01c_169 (antibody, V domains shown)
VH: QVHLVQSGAEVKKPGASVKVSCKASGYTFTDDYIHWLRQAPGQGLEWMGWINPYSGGTNYAQKFQGRVTMTRDTSINTAYMELSRLRSDDTAVYYCARYQSTFYFDYWGQGTLVTVSS
VL: B1 VL with I2F, I29L, F83S, Y86F, Y92E
B4: G001_gp1_V10_VRC01c_177 (antibody, V domains shown)
VH: not shown
VL: B1 VL with S28T, K50D, S76T, Y92E, Q96P, L100V, E101D
B5: G001_gp1_V10_VRC01c_162 (antibody, V domains shown)
VH: QVQLVQSGAEVKNPGASVKVSCKASGYTFSGYYMHWVRQAPGQGLEWMGWINPNSGGTNYAQKFQGRVTMTRDTSISTAYMALSRLRSDDTAVYYCARPAPYDSSGYNWGYWGQGTLVTVSS
VL: B1 VL with I29M, S30N, S31N, S53T, Y92E, L100V, I102V
B6: G001_gp1_V10_VRC01c_2021-0088 (antibody, V domains shown)
VH: QVQLVQSGAEVKKPGASVKVSCKASGYTFTGYYMHWVRQAPGQGLEWMGWINPNSGGTNYAQKFQDWVTMTRDTSISTAYMELSRLRSDDTAVYFCARVKGHYDSSGGWNFDLWGRGTLVTVSS
VL: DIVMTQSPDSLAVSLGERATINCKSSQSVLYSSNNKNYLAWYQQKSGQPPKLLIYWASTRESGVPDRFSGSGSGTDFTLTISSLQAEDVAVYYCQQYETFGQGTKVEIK
B7: G001_gp1_V10_VRC01c_159 (antibody, V domains shown)
VH: QVQLVQSGAEVKKPGASVKVSCKASGYTFADYYIHWVRQAPGQGLEWMGWINPNSGGTNYAQKFQGRVTMTRDTSITTAYMELSRLGSDDTAVYYCARAYYGDYGDYWGQGTLVTVSS
VL: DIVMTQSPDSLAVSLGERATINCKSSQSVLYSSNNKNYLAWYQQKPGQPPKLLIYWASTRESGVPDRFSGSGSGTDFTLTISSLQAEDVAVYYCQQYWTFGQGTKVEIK
B8: G001_gp1_V10_VRC01c_2021-0090 (antibody, V domains shown)
VH: not shown
VL: DNQMTQSPSSLSASVGDRVTITCRASQGISNSLAWYQQKPGKAPKLLLYASSRLESGVPSRFSGSGSGTDYTLTISSLQPEDFATYYCQQYETFGQGTKVEIK
B9: G001_gp1_V10_VRC01c_164 (antibody, V domains shown)
VH: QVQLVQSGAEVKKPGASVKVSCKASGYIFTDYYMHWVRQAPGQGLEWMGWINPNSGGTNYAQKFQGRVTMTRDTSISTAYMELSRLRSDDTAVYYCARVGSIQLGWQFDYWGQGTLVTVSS
VL: EIVMTQSPATLSVSPGERATLSCRASQSVSSNLAWYQQIPGQAPRLLIYGTSTRATGIPARFSGSGSGTEFTLTISSLQSEDFAVYYCQQYETFGQGTKLEIK
B10: G001_gp1_V10_VRC01c_2021-0086 (antibody, V domains shown)
VH: not shown
VL: B9 VL with I39K, T51A, E92Q
B11: G001_gp1_V08_VRC01c_2021-0078 (antibody, V domains shown)
VH: QVQLVQSGAEVKKPGASVKVSCKASGYTFTGYYMHWVRQAPGQGLEWMGWINPNSGGTNFAQKFQGRVTMTRGTSITTTYMELSRLRSDDTAVYYCARVSQYRTGWYFGYWGQGTLVTVSS
VL: DIQMTQSPSSLSASVGDRVTITCQASQDISNYLNWYQQKPGKAPKLLIYDASNLETGVPSRFSGSGSGTDFTFTISSLQPEDIATYYCQQYEFFGGGTKVEIK
B12: G001_gp1_V10_VRC01c_181 (antibody, V domains shown)
VH: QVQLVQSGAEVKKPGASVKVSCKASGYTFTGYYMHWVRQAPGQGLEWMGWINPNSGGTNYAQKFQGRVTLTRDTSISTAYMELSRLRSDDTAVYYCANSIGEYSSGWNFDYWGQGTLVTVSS
VL: B11 VL with D50Y, E92G, F93T, G96Q, V100L
B13: G001_gp1_V10_VRC01c_174 (antibody, V domains shown)
VH: QVQLVQSGAEVKKPGATVKVSCKASGYTLTDYYMHWVRQAPGQGLEWMGWMNPNSGGTNYGRKFQGRVTMTRDTSINTAYMELSRLRSDDTAVYFCARAREKWPFDYWGQGTLVTVSS
VL: B11 VL with S9A, L33V, Y49N, D50G, F93N, G96P, E101D
B14: G001_gp1_V10_VRC01c_175 (antibody, V domains shown)
VH: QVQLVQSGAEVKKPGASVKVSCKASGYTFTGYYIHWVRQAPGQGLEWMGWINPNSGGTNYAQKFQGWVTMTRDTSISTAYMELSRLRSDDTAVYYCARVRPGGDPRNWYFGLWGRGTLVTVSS
VL: B11 VL with Y91W, E92D, F93T, G96Q, V100L
B15: G001_gp1_V10_VRC01c_160 (antibody, V domains shown)
VH: QVQLVQSGAEVKKPGASMKVSCEASGYTFTDYYMHWVRQAPGQGLEWMGWINPNSGGTNYAQKFQGRVTMTRDTSISTAYMELSRLRSDDTAVYYCATSIRDYLSGKVWYLGLWGRGTLVTVSS
VL: B11 VL with S76T, F93T, G96Q
B16: G001_gp1_V10_VRC01c_176 (antibody, V domains shown)
VH: QVQLVQSGAEVKRPGASVKVSCRASGYTFTGYYMHWVRQAPGQGLEWMGWINPNSGGTNYAQKFQGRVTMTRDTSITTAYMELSRLNYDDTAVYYCARGDDSSAWRFHSWGQGTLITVSS
VL: B11 VL with I29S, F93T
B17: G001_gp1_V10_VRC01c_168 (antibody, V domains shown)
VH: QVQLVQSGAEVKKPGASVKVSCKASGYTFTGYHIHWVRQAPGQGLEWMGWINPNSGGTNYARKFQGRVTMTRDTSISTAYMELSRLNSDDTAVYYCAFPLGIRTTGRSWYFDLWGRGTLVTVSS
VL: B11 VL with L46I, S63R, F93T
B18: G001_gp1_V10_VRC01c_166 (antibody, V domains shown)
VH: not shown
VL: B11 VL with E92N, F93T, G96Q, V100L
B19: G001_gp1_V08_VRC01c_2021-0081 (antibody, V domains shown)
VH: QVQLVQSGAEVKKPGASVKVSCKASGYTFTDHYMHWVRQAPGQGLEWMGWINPNSGGTNYAQKFQGWVTMTRDTSVSTAYMEVRRLRSDDTAVYYCAIIHYRRSSWEFAYWGQGTLVTVSS
VL: B11 VL with I21V, Y32S, D50G, A84G, F93T, G96Q, V100L, K103R
B20: G001_gp1_V08_VRC01c_2021-0082 (antibody, V domains shown)
VH: QVQLVQSGTEVKKPGASVKVSCKASGYTFTGYYIHWVRQAPGQGLEWMGWINPNSGGTNYAQKFQGWVTMTRDTSISTAYMELRRLTSVDTAVYYCARARSGYSSGWYWAYWGQGTLVTVSS
VL: B11 VL
B21: G001_gp1_V10_VRC01c_163 (antibody, V domains shown)
VH: not shown
VL: DIVMTQSPDSLAVSLGERATINCKSSQSVYYSSNKKNYLAWYQQKPGQPPKLLIYWTSTRESGVPDRFSGSGSGTDFTLTISSLQAEDVAVYYCQQYWTFGQGTKVEIK
B22: G001_gp1_V10_VRC01c_167 (antibody, V domains shown)
VH: QVQLVQSGAEVKKPGASVKVSCKASGYTFTGYYMHWVRQAPGQGLEWMGWINPNSGGTNYAQKFQGRVTMTRDTSITTAYMELTRLISDDTAVYYCASPASIPAAGSFAFDIWGQGTMVTVSS
VL: EIVLTQSPGTLSLSPGERATLSCRASQSVGSSYLTWYQQKPGQAPRLLIYGASSRATGIPDRFSGSGSGTDFTLTISGLEPEDFAVYYCQQYETFGQGTKVEIK
B23: G001_gp1_V10_VRC01c_172 (antibody, V domains shown)
VH: QVQLVQSGAEVKKPGASVKVSCKASGYTFTGYYFYWVRQAPGQGLEWMGWINPNSGGTNSPQKFQGRVSMTRDTSISTAYMEVSSLRSDDTAVYYCARRFTSMGVALDYWGQGTLVTVSS
VL: B22 VL with G30S, Y33S, T35A, Y50F, A52T, G78R, E93D, T94S, K100R, V101L
B24: G001_gp1_V10_VRC01c_184 (antibody, V domains shown)
VH: QVQLVQSGAEVKKPGASVKVSCKASGYTFTAYYMHWVRQAPGQGLEWMGWINPNSGGTNYAQKFQGRVTMTRDTSITTAYMELSRLRSDDTAVYYCAIESVVRHSWFDPWGQGTLVTVSS
VL: B22 VL with S28N, G30S, T35A, G51Y, S54I, D71A, G78R, T94A
B25: G001_gp1_V10_VRC01c_171 (antibody, V domains shown)
VH: QVQLVQSGAEVKRPGASVKVSCKASGYTFTDYYIHWVRQAPGQGLEWMGWINPNSGGTNYARKFQGRVTMTRHTSIGTAYMELSRLRSDDTAVYYCARHIVAAGTWAFDIWGQGTMVTVSS
VL: B22 VL with G30S, T35A, S64R, G78R
B26: G001_gp1_V10_VRC01c_183 (antibody, V domains shown)
VH: QVHPVQSGAEVKKPGASVKVSCEASGYTFSGYYMHWVRQAPGQGLEWMGWINLNSGGTNYAQKFQDRVTMTRDTSISTAYMELSSLRSDDTAFYYCAHNGGNGGTWYFHYWGQGTLVTVSS
VL: B22 VL with G30S, S31N, S32N, T35A, S54R, S68T, G78R, F84S, Q97P, E102D
B27: G001_gp1_V10_VRC01c_170 (antibody, V domains shown)
VH: QVQLVQSGAEVKKPGASVKVSCKASGYTFTDYYMHWVRQAPGQGLEWMGWINPNSGGTNYAQKFQDRVTMTRDTSISTGYMELRRLRSDDTAVYYCASHHLTSQGPWWFDPWGQGTLLTVSS
VL: B22 VL with G30S, T35V, S66R, G78R, P81S, Y88F
B28: G001_gp1_V10_VRC01c_182 (antibody, V domains shown)
VH: QLQLVQSGAEVKKPGASVKVSCQASGFTFSGHYMHWVRQAPGHGLEWMGWINTNSGGTNYARKFQGRVTMTRDTSISTAYMELSRLRSDDTAVYYCATSVWFGASVWNFDNWGQGSLVTVSS
VL: ENVLTQSPATLSLSPGERATLSCRASQSVSTHNLAWYQQKPGQAPRLLIYGVFSRATGIPDRFSGSGSGTDFTLTISSLEPEDTAVYYCQQYETFGQGTNVEIK

Target: eOD-GT8 (engineered outer domain germline-targeting version 8), monomer (HIV-1 gp120 engineered outer domain, …)

| Binder | binding result |
| --- | --- |
| B1 | binds |
| B2 | binds |
| B3 | binds |
| B4 | binds |
| B5 | binds |
| B6 | binds |
| B7 | binds |
| B8 | binds |
| B9 | binds |
| B10 | binds |
| B11 | binds |
| B12 | binds |
| B13 | binds |
| B14 | binds |
| B15 | binds |
| B16 | binds |
| B17 | binds |
| B18 | binds |
| B19 | binds |
| B20 | binds |
| B21 | binds |
| B22 | binds |
| B23 | binds |
| B24 | binds |
| B25 | binds |
| B26 | binds |
| B27 | binds |
| B28 | binds |
